From PMC9600270, “Quantum Dot-Based Screening Identifies F3 Peptide and Reveals Cell Surface Nucleolin as a Therapeutic Target for Rhabdomyosarcoma” (Cancers, 2022)

Molecular target: nucleolin (cell surface, on RD and Rh30 rhabdomyosarcoma cells) (UniProt P19338)
Assay: FACS cell binding of QD conjugate
Details: overnight 37 C, 5' AminoC6, QD-aptamer 10 nM (Methods; 20 nM in Figure 5b legend) with adherent cells, 12 h/overnight, 5% CO2, conjugates prepared in PBS pH 7.4/1% BSA

nucleolin (cell surface, on RD and Rh30 rhabdomyosarcoma cells), sequence (P19338 whole entry): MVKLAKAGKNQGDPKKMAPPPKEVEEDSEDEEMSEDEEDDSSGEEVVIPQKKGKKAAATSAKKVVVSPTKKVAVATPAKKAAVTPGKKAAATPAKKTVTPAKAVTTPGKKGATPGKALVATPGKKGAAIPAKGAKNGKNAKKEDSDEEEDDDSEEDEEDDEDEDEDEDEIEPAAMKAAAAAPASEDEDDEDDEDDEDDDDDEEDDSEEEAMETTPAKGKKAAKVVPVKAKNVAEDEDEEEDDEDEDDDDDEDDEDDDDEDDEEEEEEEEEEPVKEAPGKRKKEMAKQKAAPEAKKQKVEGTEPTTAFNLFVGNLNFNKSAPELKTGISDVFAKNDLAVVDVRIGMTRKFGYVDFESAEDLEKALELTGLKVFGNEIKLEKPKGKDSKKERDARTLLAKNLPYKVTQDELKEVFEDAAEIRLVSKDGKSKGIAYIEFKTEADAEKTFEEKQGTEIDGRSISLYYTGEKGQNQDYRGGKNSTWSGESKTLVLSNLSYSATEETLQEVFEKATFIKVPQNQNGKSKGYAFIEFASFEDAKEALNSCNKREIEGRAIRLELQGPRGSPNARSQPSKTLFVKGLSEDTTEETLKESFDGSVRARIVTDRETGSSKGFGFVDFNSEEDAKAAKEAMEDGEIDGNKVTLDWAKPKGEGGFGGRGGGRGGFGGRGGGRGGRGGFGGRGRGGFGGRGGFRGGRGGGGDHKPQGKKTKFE

With “TTGGTGGTGGTGGTTGTGGTGGTGGTGG [AS1411 (AGRO100)]” the binding signal (fold over QD-NC-AS1411) (RD cells) was 8.8 and the binding signal (fold over QD-NC-AS1411) (Rh30 cells) was 2.2.
